Assay [1] deals with recombinant FlaB (Vibrio vulnificus MO6-24/O).
Assay [2] has the same target. This is another data set of the same source.
Assay [3] has the same target. The source holds these as a separate data set.
Assay [4] deals with FlaBΔN0C0 (truncated FlaB, from L54 to S332) (Vibrio vulnificus MO6-24/O).
Assay [5] addresses FlaBΔN1 (truncated FlaB, from K162 to G377) (Vibrio vulnificus MO6-24/O).
The target of assay [6] is FlaBΔC0 (truncated FlaB, from M1 to S332) (Vibrio vulnificus MO6-24/O).
The target of assay [7] is FlaBΔC1 (truncated FlaB, from M1 to A287) (Vibrio vulnificus MO6-24/O).
Assay [8] addresses recombinant FlaB (Vibrio vulnificus MO6-24/O). This is another data set of the same source.

“recombinant FlaJ (flagellin-specific chaperone) (natural protein)”: the protection of 1 μM rFlaB from proteolysis by 1.08 μM rDegQ with rFlaJ 0-6.67 μM; percent of rFlaB left at 0.56 μM FlaJ in assay [1] was 77%.
As to “recombinant DegQ (serine protease of the HtrA family) (enzyme)”, the averaged EC50 of rDegQ for in vitro proteolysis of 1 μM rFlaB, as given for comparison with the FlaC mutant (Fig. 7b) in assay [2] amounted to 140 nM. In addition, the averaged EC50 of rDegQ for in vitro proteolysis of 1 μM rFlaB (three independent experiments) in assay [3] came to 130 nM. For the same substance, the averaged EC50 of rDegQ for in vitro proteolysis of 1 μM FlaBΔN0C0 in assay [4] worked out at 320 nM. Also, the averaged EC50 of rDegQ for in vitro proteolysis of 1 μM FlaBΔN1 in assay [5] was 420 nM. For the same substance, in assay [6], the averaged EC50 of rDegQ for in vitro proteolysis of 1 μM FlaBΔC0 amounted to 310 nM. In assay [7], this substance yielded an averaged EC50 of rDegQ for in vitro proteolysis of 1 μM FlaBΔC1 of 340 nM. Moreover, the EC50 of rDegQ (0-1.2 μM) proteolysing 50% of 1 μM rFlaB in vitro (SDS-PAGE densitometry), representative experiment in assay [8] is 140 nM.

These data come from article PMC8032703.
